Results on 3 molecules are retold here after patent KR20180095349A (dated 2018).

This assay has as its target T1, VEGF 항원 단백질 (VEGF-His) (UniProt P15692-4 27-191, limits assumed).
T1 construct: Expressed from pN293-VEGF in HEK293F cells, purified on Ni-NTA and by gel filtration; also called 혈관 내피세포 성장인자
T1 sequence: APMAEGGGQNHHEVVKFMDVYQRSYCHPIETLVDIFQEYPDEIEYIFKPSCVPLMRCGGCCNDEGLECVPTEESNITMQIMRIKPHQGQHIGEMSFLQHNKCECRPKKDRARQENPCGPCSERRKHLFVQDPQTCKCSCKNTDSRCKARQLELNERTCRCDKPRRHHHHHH
The assay is described as follows: ELISA on plate-coated VEGF-His (100 ng/well), IgG diluted 1/2 from 50 nM, anti-human Fc-HRP, fit in GraphPad Prism.

B1: 항-VEGF 단일클론 인간항체 4C4 (IgG형) (antibody, V domains shown)
VH: QVQLVQSGAEVKKPGSSVKVSCKASGGTFSSSAFSWVRQAPGHGLEWMGRIIPMFDMTDYAQRFQGRLTIIADESSSTAYMELSSLRSEDTAVYYCARYKSGSYGMDVWGQGTTVTVSS
VL: NFMLTQPASVSGSPGQSITISCTGSSSDVGGYNYVSWYQQHPGKAPQLIIYDVTKRPSGVSNRFSGSKSGNSASLTISGLQAEDEADYYCSSYSSSTFYVFGTGTKVTVL
One may read the Kd as a measure of binding affinity in units of concentration. The molecule B1 registered a Kd of 0.025 nM.

B2: 항-VEGF 단일클론 인간항체 3H1 (IgG형) (antibody, V domains shown)
VH: QVQLVESGGGLVKPGGSLRLSCAASGFIFSRYGMNWVRQAPGKGLEWVSSISGSSNYRYYADSVKGRFTISRDNAKNSLYLQMNSLRAEDTAVYYCARDASWGLIQGLDSWGQGTLVTVSS
VL: DIQMTQSPSSLSASVGDRVTITCRASQSISSYLNWYQQEPGKAPKLLIYDASSLQSGVPSRFSGGGSGTDFTLTISSLQPEDFAAYYCQQSYSTPYTFGQGTKVDIK
Molecule B2 had a Kd of 0.06 nM.

B3: 항-VEGF 단일클론 인간항체 7D2 (IgG형) (antibody, V domains shown)
VH: QMQLVQSGGGLVQPGGSLRLSCAASGFTFSSFEMNWVRQAPGKGLEWLSYISNSGSTIYYADSVKGRFTISRDNAKNSLYLQMNSLRAEDTAVYYCARDSRYYGIHGMDVWGQGTTITVSS
VL: DIQMTQSPSSLSASVGDRVTITCRASQTISTYLNWYQQKPGKAPKLLIYAASSLQSGVPSRFSGSGSGTDFTLTISSLQPEDFATYYCQQSSSTPRTFGQGTRLEIK
As for B3, the Kd was 0.05 nM.
